In FireProtDB (doi:10.1074/jbc.m304177200):

Settings: Kitasatospora aureofaciens; pH 7; Thermal; CD; MOPS 30 mM; reversible: yes(>95%); whole UniProt chain shown

B1: Guanyl-specific ribonuclease Sa wild type, P05798 (protein)
chain: DVSGTVCLSALPPEATDTLNLIASDGPFPYSQDGVVFQNRESVLPTQSYGYYHEYTVITPGARTRGTRRIITGEATQEDYYTGDHYATFSLIDQTC
In the case of B1, the Tm is reported as 48.4 °C and the “unfolding enthalpy (van 't Hoff)” value is reported as 95 kcal/mol.
